# Measured values as given in patent US20230235004A1 (published 2023).
# B1: MAdCAM antibody Table 1 clone 19 (scFv)
# scFv: EVQLLESGGGLVQPGGSLRLSCAASGFTFDDYAMHWVRQAPGKGLEWVSGISWNSGSIGYADSVKGRFTISRDNSKNTLYLQMNSLRAEDTAVYYCAKDIVAAGHYYYGMDVWGQGTTVTVSSGGGGSGGGGSGGGGSGGGGSDIQMTQSPSSLSASVGDRVTITCQASQDISNYLNWYQQKPGKAPKLLIYDASNLETGVPSRFSGSGSGTDFTLTISSLQPEDFATYYCQQSYSTPLTFGGGTKVEIK
# B2: MAdCAM antibody Table 1 clone 20 (scFv)
# scFv: EVQLLESGGGLVQPGGSLRLSCAASGFTFDDYAMHWVRQAPGKGLEWVSYIDTSSSHLYYADSVKGRFTISRDNSKNTLYLQMNSLRAEDTAVYYCARDEAAAGYYGMDVWGQGTTVTVSSGGGGSGGGGSGGGGSGGGGSDIQMTQSPSSLSASVGDRVTITCQAGQDISNYLNWYQQKPGKAPKLLIYDASNLETGVPSRFSGSGSGTDFTLTISSLQPEDFATYYCQQTYSTPITFGQGTKLEIK
# B3: MAdCAM antibody Table 1 clone 23 (scFv)
# scFv: EVQLLESGGGLVQPGGSLRLSCAASGFTFSSYAMHWVRQAPGKGLEWVSGISGSGGSAYYADSVKGRFTISRDNSKNTLYLQMNSLRAEDTAVYYCATSQAPVDYYYYGMDVWGQGTTVTVSSGGGGSGGGGSGGGGSGGGGSDIQMTQSPSSLSASVGDRVTITCRASQSISSWLAWYQQKPGKAPKLLIYAASNLQRGVPSRFSGSGSGTDFTLTISSLQPEDFATYYCQQSYSIPITFGQGTKVEIK
# B4: MAdCAM antibody Table 1 clone 61 (scFv)
# scFv: EVQLLESGGGLVQPGGSLRLSCAASEFTFSNAWMSWVRQAPGKGLEWVASISSTSAYIDYADSVKGRFTISRDNSKNTLYLQMNSLRAEDTAVYYCAREVVGATTFDYWGQGTLVTVSSGGGGSGGGGSGGGGSGGGGSDIQMTQSPSSLSASVGDRVTITCRASQSISTWLAWYQQKPGKAPKLLIYAASSLQSGVPSRFSGSGSGTDFTLTISSLQPEDFATYYCQQANAFPPTFGQGTRLEIK
# B5: MAdCAM antibody Table 1 clone 64 (scFv)
# scFv: EVQLLESGGGLVKPGGSLRLSCAASGFAFSSHWMHWVRQAPGKGLEWVAGTSGSGESRDYADFVKGRFTISRDDSKNTLYLQMNSLKTEDTAVYYCARETYYYYYMDVWGKGTTVTVSSGGGGSGGGGSGGGGSGGGGSDIQMTQSPSSLSASVGDRVTITCRASQGISNYLAWYQQKPGKAPKLLIYDAANLEGGVPSRFSGSGSGTDFTLTISSLQPEDFATYYCQQSDIFPPTFGQGTKVEIK
# B6: MAdCAM antibody Table 1 clone 65 (scFv)
# scFv: QVQLVQSGAEVKKPGASVKVSCKASGYTFTRHWIHWVRQAPGQGLEWMGWINVKTGGAGYAQKFQGRVTMTRDTSTSTVYMELSSLRSEDTAVYYCARESSGWYGTDVWGQGTTVTVSSGGGGSGGGGSGGGGSGGGGSDIQMTQSPSSLSASVGDRATITCRASQSISNYLAWYQQKPGKAPKLLIYAASSLQSGVPSRFSGSGSGTDFTLTISSLQPEDFATYYCQQSNSFPLTFGGGTKVEIK
# B7: MAdCAM antibody Table 1 clone 66 (scFv)
# scFv: EVQLLESGGGLVQPGGSLRLSCAASGFTFSSYWMHWVRQAPGKGLEWVAAISYDGKYKDYEDSVKGRFTISRDNSKNTLYLQMNSLRAEDTAVYYCARENKQWLASFDYWGQGTLVTVSSGGGGSGGGGSGGGGSGGGGSDIQMTQSPSSLSASVGDRVTITCQASQDISNFVNWYQQKPGKAPKLLIYAANLRSGVPSRFSGSGSGTDFTLTISSLQPEDFATYYCQQANSFPVTFGPGTKVDIK
# B8: MAdCAM antibody Table 1 clone 1 (scFv)
# scFv: EVQLLESGGGLVQPGGSLRLSCAASGFTFSSYGMHWVRQAPGKGLEWVAVISDDGSDKYYADSVKGRFTISRDNSKNTLYLQMNSLRAEDTAVYYCTTSKYYYYYGMDVWGQGTTVTVSSGGGGSGGGGSGGGGSGGGGSDIQMTQSPSSLSASVGDRVTITCQASQDISKSLNWYQQKPGKAPKLLIYAASSLQSGVPSRFSGSGSGTDFTLTISSLQPEDFATYYCQQGYSTPLTFGGGTKVEIK
# B9: MAdCAM Antibody Table 2 clone 46 (antibody, V domains shown)
# VH: EVQLLESGGGLVQPGGSLRLSCAASGFSFSSYTMNWVRQAPGKGLEWVSFITSSSRTIYYADSVKGRFTISRDNSKNTLYLQMNSLRAEDTAVYYCARDRRGDYGDSWYFDLWGRGTLVTVSS
# VL: EIVMTQSPATLSVSPGERATLSCRASQSVRNYLAWYQQKPGQAPRLLIYGASTRATGIPARFSGSGSGTEFTLTISSLQSEDFAVYYCQQYGSSPLTFGGGTKVEIK
# notes: IgG format
# B10: MAdCAM Antibody Table 2 clone 65 (antibody, V domains shown)
# VH: QVQLVQSGAEVKKPGASVKVSCKASGYTFTSYDINWVRQAPGQGLEWMGWMNPNSGNTGYAQKFQGRVTMTRDTSTSTVYMELSSLRSEDTAVYYCAKDSDYSNLLWDYWGQGTLVTVSS
# VL: DIQMTQSPSSLSASVGDRVTITCRASQDITNDLGWYQQKPGKAPKLLIYQASSLESGVPSRFSGSGSGTDFTLTISSLQPEDFATYYCQQSYTIPLTFGQGTKVEIK
# notes: IgG format
# B11: MAdCAM Antibody Table 2 clone 74 (antibody, V domains shown)
# VH: QVQLVQSGAEVKKPGASVKVSCKASGYTFTGYYMHWVRQAPGQGLEWMGIINPSGGNTKYAQKFQGRVTMTRDTSTSTVYMELSSLRSEDTAVYYCTTADYYYYMDVWGKGTTVTVSS
# VL: DIQMTQSPSSLSASVGDRVTITCRASQGISNYLAWYQQKPGKAPKLLIYAASSLQSGVPSRFSGSGSGTDFTLTISSLQPEDFATYYCQQYYSNADFGQGTKVEIK
# notes: IgG format
# B12: MAdCAM Antibody Table 2 clone 75 (antibody, V domains shown)
# VH: EVQLLESGGGLVQPGGSLRLSCAASGFTFSDFWMHWVRQAPGKGLEWISYISGDSGYTNYADSVKGRFTISRDNSKNTLYLQMNSLRAEDTAVYYCARDRPYYYYMDVWGKGTTVTVSS
# VL: DIQMTQSPSSLSASVGDRVTITCRASQSVSRSLAWYQQKPGKAPKLLIYAASSLQSGVPSRFSGSGSGTDFTLTISSLQPEDFATYYCQQYKSYPVTFGQGTKVEIK
# notes: IgG format
# B13: MAdCAM Antibody Table 2 clone 79 (antibody, V domains shown)
# VH: EVQLLESGGGLVKPGGSLRLSCAASGFTFDDYAMHWVRQAPGKGLEWVASITSSSAFIDYAASVKGRFTISRDDSKNTLYLQMNSLKTEDTAVYYCARERVDWNSYFDLWGRGTLVTVSS
# VL: EIVMTQSPATLSVSPGERATLSCRASQGISNSYLAWYQQKPGQAPRLLIYGASTRATGIPARFSGSGSGTEFTLTISSLQSEDFAVYYCQQYYTYPPTFGPGTKVDIK
# notes: IgG format
# Target: T1, human MAdCAM expressed on cells (human, UniProt Q13477 19-382)
# T1 construct: whole, on cells
# T1 sequence (looked up): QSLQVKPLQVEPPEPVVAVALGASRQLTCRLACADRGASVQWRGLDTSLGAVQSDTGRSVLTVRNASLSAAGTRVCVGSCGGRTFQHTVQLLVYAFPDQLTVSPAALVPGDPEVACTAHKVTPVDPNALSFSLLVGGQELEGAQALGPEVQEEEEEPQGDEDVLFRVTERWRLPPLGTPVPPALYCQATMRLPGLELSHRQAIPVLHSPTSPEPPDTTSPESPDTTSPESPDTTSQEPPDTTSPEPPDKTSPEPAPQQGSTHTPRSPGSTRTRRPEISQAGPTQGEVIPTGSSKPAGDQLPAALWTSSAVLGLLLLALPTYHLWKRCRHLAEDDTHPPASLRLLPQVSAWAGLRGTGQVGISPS
# Experiment: cell binding
row,Binder,binding result
1,B1,binds
2,B2,binds
3,B3,binds
4,B4,binds
5,B5,binds
6,B6,binds
7,B7,binds
8,B8,binds

# Target: T2, mouse MAdCAM expressed on cells (mouse, UniProt Q61826 22-405)
# T2 construct: whole, on cells
# T2 sequence (looked up): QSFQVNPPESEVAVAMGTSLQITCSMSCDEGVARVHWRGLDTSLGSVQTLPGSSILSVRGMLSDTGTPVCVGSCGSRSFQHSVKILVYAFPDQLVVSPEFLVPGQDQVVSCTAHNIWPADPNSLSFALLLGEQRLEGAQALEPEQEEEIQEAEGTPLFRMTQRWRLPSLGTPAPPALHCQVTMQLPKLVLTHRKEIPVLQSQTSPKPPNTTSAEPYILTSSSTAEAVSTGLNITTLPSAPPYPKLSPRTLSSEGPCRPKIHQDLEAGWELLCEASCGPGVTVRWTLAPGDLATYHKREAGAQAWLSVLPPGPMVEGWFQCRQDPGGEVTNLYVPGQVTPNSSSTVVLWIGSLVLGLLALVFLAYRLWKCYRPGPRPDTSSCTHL
# Experiment: cell binding
row,Binder,binding result
1,B1,no binding
2,B2,no binding
3,B3,no binding
4,B4,binds
5,B5,binds
6,B6,binds
7,B7,binds
8,B8,binds

# Target: T3, recombinant mouse MAdCAM-1 (mouse, UniProt Q61826 22-364, limits assumed)
# T3 construct: also called mMAdCAM-1
# T3 sequence (looked up): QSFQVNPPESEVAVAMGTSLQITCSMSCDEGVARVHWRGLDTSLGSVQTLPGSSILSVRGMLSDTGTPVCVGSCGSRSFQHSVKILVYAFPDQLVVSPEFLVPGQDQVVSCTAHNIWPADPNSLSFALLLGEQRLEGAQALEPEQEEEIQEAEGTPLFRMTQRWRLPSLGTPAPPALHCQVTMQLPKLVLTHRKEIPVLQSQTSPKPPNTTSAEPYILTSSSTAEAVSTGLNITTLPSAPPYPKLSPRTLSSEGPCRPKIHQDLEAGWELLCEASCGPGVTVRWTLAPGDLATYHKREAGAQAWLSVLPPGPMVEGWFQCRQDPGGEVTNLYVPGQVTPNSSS
# Experiment: Octet
row,Binder,binding result
1,B9,no binding
2,B10,no binding
3,B11,no binding
4,B12,binds
5,B13,binds

# Target: T4, human MAdCAM protein (human, UniProt Q13477 19-317, limits assumed)
# T4 construct: also called soluble monomeric human MAdCAM; recombinant human MAdCAM
# T4 sequence (looked up): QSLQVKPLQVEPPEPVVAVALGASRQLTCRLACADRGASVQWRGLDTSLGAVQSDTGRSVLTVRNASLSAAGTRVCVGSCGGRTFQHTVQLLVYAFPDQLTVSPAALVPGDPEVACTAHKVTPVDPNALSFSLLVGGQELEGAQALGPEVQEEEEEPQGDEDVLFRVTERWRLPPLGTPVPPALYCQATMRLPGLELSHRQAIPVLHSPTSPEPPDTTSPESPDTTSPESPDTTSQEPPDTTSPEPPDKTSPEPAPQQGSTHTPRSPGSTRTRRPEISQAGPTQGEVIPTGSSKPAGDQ
# Experiment: Octet
row,Binder,binding result
1,B9,binds
2,B10,binds
3,B11,binds
4,B12,binds
5,B13,binds

# Target: T1, human MAdCAM expressed on cells
# Experiment: cell binding
# Remark: another data set of the same source
row,Binder,binding result
1,B9,binds
2,B10,binds
3,B11,binds
4,B12,binds
5,B13,binds

# Target: T2, mouse MAdCAM expressed on cells
# Experiment: cell binding
# Remark: another data set of the same source
row,Binder,binding result
1,B9,no binding
2,B10,no binding
3,B11,no binding
4,B12,binds
5,B13,binds

# Target: T3, recombinant mouse MAdCAM-1
# Experiment: Octet
# Remark: another data set of the same source
row,Binder,binding result
1,B1,no binding
2,B2,no binding
3,B3,no binding

# Target: T4, human MAdCAM protein
# Experiment: Octet
# Remark: another data set of the same source
row,Binder,binding result
1,B1,binds
2,B2,binds
3,B3,binds
4,B4,binds
5,B5,binds
6,B6,binds
7,B7,binds
8,B8,binds
